Results on 27 substances are retold here after US11505576B2, “Polypeptides based on a scaffold” (AFFIBODY AB, priority 2018, dated 2022).

“Also recorded” adds a separate entry of the source.

One may read the Kd as the concentration at which binding is half-saturated. Lower therefore signals a tighter complex.

Series [1] is described as follows: Circular dichroism spectroscopy analysis (CD spectra, variable temperature measurement, refolding). Type of series: physicochemical. On the procedure: The respective Y variant was diluted to 0.5 mg/ml in PBS. A CD spectrum at 250-195 nm was obtained at 20° C. In addition, a variable temperature measurement (VTM) was performed to determine the melting temperature (Tm). In the VTM, absorbance was measured at 221 nm while the temperature was raised from 20° C. to 90° C. with a temperature gradient of 5° C./min. A new CD spectrum was obtained at 20° C. after the heating procedure, in order to study the refolding ability of the Y variants. The CD measurements were performed on a Jasco J-810 spectropolarimeter (Jasco Scandinavia AB) using a cell with an optical path length of 1 mm.
(§1) Produced Y variants were subjected to CD and SPR analyses according to the methods described in Example 1.
(§2) The Y variants were cloned, produced and characterized according to the general methods described in Example 1. Produced Y variants with point mutations and/or N-terminal or C-terminal extensions were subjected to CD and SPR analyses as described in Example 1.
(§3) Produced Y variants were subjected to CD and SPR analyses according to the methods described in Example 1. In addition, CD spectra of selected IL-6 binding variants were also recorded at 60, 70, 80 and 90° C.
(§4) The Y variants were cloned, produced and characterized according to the general methods described in Example 1. Produced Y variants with point mutations were subjected to CD and SPR analyses as described in Example 1. In addition, CD spectra of the IL-6 binding variants were also recorded at 60, 70, 80 and 90° C.
In general terms: Circular dichroism is widely used to follow secondary structure.

Another series deals with T1, insulin (Homo sapiens, UniProt P01308).
T1 construct: purchased Roche 1376497
T1 sequence (P01308 25-54 limits assumed): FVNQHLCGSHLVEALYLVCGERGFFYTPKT
T1 sequence (P01308 90-110 limits assumed): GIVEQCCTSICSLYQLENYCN
Kind of series: Kinetic analysis using surface plasmon resonance (Biacore T200), immobilized insulin. It counts as binding. On the procedure:
Kinetic constants (ka and kd) and affinities (KD) were determined for His6-tagged Y variants using a Biacore T200 instrument (GE Healthcare). Target proteins C4, IL-6 and insulin, respectively, were immobilized in separate flow cells on the carboxylated dextran layer of different CM5 chip surfaces (GE Healthcare). Immobilization was performed using amine coupling chemistry according to the manufacturer's protocol and PBS pH 7.4 supplemented with 0.1 Tween20 (PBST 0.1%) as running buffer. The ligand immobilization levels on the surfaces were 3280-8830 RU for C4, 495-1184 RU for IL-6, and 270-282 RU for insulin. One flow cell surface on each chip was activated and deactivated for use as blank during analyte injections. In the kinetic experiment, PBST 0.1% was used as running buffer at a flow rate of 30 μl/min. The analytes, i.e. Y variants, were each diluted in PBST 0.1 buffer at concentrations of 1000, 500, 100, 50 and 10 nM and injected for 5 min, followed by dissociation in running buffer for 3 min. After dissociation, the surfaces were regenerated with one injection of 30 μl 10 mM HCl. Kinetic constants were calculated from the sensorgrams using the Langmuir 1:1 model of Biacore T200 Evaluation software 2.0 (GE Healthcare).
as §1, §2, §3, §4

[2] abbreviates: Table 2, Ylib001Naive.I selection, MGSSHHHHHHGSS-[Y#####]-ASGSVD, 0.5 mg/ml in PBS, 221 nm, 20-90° C.
The mark [3] stands for this setting: Table 3, mutation study 1, MGSSHHHHHHGSS-[Y#####].
The mark [4] stands for this setting: Table 2, His6-tagged Y variant, MGSSHHHHHHGSS-[Y#####]-ASGSVD.
The mark [5] stands for this setting: Table 4, mutation study 2, MGSSHHHHHHGSS-[Y#####].

For the substance “Y00001: C4 binding Y variant from Ylib001Naive.I, SEQ ID NO:1 (LAEAKEAAIAELDSKGINEAIISKIERAESVEEVEYWKEEILAQLP; Engineered C4 binding Y variant)”, the Tm in series [1] (setting [2]) was determined as 61 °C; in series [1] (setting [3]), 57 °C.
As for “Y00004: C4 binding Y variant from Ylib001Naive.I, SEQ ID NO:4 (LAEAKEAANAELDSYGVDADLIKKIERAESVEEVEFWKEEILAHLP; Engineered C4 binding Y variant)”, the Tm in series [1] (setting [2]) was 45 °C.
The same measure, in the same setting: as for “Y00005: C4 binding Y variant from Ylib001Naive.I, SEQ ID NO:5 (LAEAKEAAIAELDSAGVNEVQKSKIEQASSVEEVEFWKEEILAQLP; Engineered C4 binding Y variant)”, the figure is 60 °C.
Consider “Y00006: C4 binding Y variant from Ylib001Naive.I, SEQ ID NO:6 (LAEAKEAAIAELDSYGVVANLKKKIEIAKSVEQVEFWKEEILAQLP; Engineered C4 binding Y variant)”, for which the Tm in series [1] (setting [2]) was 49 °C.
“Y00032: insulin binding Y variant from Ylib001Naive.I, SEQ ID NO:90 (LAEAKEAAIAELDSKGVGAYQKSFIELAKSVEHVELLKEAILADLP; Engineered insulin binding Y variant)”: the results for the Kd with insulin (setting [4]) and in the series with insulin (setting [3]) were 50 nM and 63 nM, respectively. For the same substance, the “α-helical content / ability to fold into an α-helical structure” value in series [1] (CD spectrum at 20° C.) is given as “considerably higher α-helical content; also recorded: good ability to fold into an α-helical structure”. The results for the Tm in series [1] (setting [2]), in series [1] (setting [3]) and in series [1] (setting [5]) were 47 °C, 49 °C and 49 °C, respectively.
Turning to “Y00125: insulin binding Y variant, SEQ ID NO:106; differs from Y00032 by N in position 9 (LAEAKEAANAELDSKGVGAYQKSFIELAKSVEHVELLKEAILADLP; Engineered insulin binding Y variant)”, the Kd in the series with insulin (setting [4]) worked out at 110 nM. For the same substance, the Tm in series [1] (setting [2]) came out at 35 °C.
Turning to “Y00262: C4 binding Y variant, Y00001 with S23K, SEQ ID NO:18 (LAEAKEAAIAELDSKGINEAIIKKIERAESVEEVEYWKEEILAQLP; Engineered C4 binding Y variant)”, the Tm in series [1] (setting [3]) and in series [1] (setting [5]) was 61 °C each time.
For the substance “Y00263: insulin binding Y variant, Y00032 with D13K, SEQ ID NO:110 (LAEAKEAAIAELKSKGVGAYQKSFIELAKSVEHVELLKEAILADLP; Engineered insulin binding Y variant)”, the Kd with insulin (setting [3]) worked out at 130 nM. Also, the Tm in series [1] (setting [3]) turned out to be 43 °C.
Regarding “Y00264: insulin binding Y variant, Y00032 with K15Y, SEQ ID NO:111 (LAEAKEAAIAELDSYGVGAYQKSFIELAKSVEHVELLKEAILADLP; Engineered insulin binding Y variant)”, in the series with insulin (setting [3]), the Kd was 64 nM. In series [1] (setting [3]), the Tm amounted to 48 °C.
The corresponding values for “Y00265: insulin binding Y variant, Y00032 with V17I, SEQ ID NO:112 (LAEAKEAAIAELDSKGIGAYQKSFIELAKSVEHVELLKEAILADLP; Engineered insulin binding Y variant)” are 120 nM and 47 °C.
The corresponding values for “Y00266: insulin binding Y variant, Y00032 with G18S, SEQ ID NO:113 (LAEAKEAAIAELDSKGVSAYQKSFIELAKSVEHVELLKEAILADLP; Engineered insulin binding Y variant)” are 56 nM and 50 °C.
In the series with insulin (setting [3]), “Y00267: insulin binding Y variant, Y00032 with A19E, SEQ ID NO:114 (LAEAKEAAIAELDSKGVGEYQKSFIELAKSVEHVELLKEAILADLP; Engineered insulin binding Y variant)” displayed a Kd of 59 nM. Also, the Tm in series [1] (setting [3]) turned out to be 48 °C.
The matching figures for “Y00268: insulin binding Y variant, Y00032 with K22I, SEQ ID NO:115 (LAEAKEAAIAELDSKGVGAYQISFIELAKSVEHVELLKEAILADLP; Engineered insulin binding Y variant)”: 84 nM and 49 °C.
“Y00269: insulin binding Y variant, Y00032 with S23K, SEQ ID NO:116 (LAEAKEAAIAELDSKGVGAYQKKFIELAKSVEHVELLKEAILADLP; Engineered insulin binding Y variant)” displayed a Kd with insulin (setting [3]) of 390 nM. Moreover, in series [1] (setting [3]), the Tm stood at 50 °C.
In the series with insulin (setting [3]), “Y00270: insulin binding Y variant, Y00032 with K22I + S23K, SEQ ID NO:117 (LAEAKEAAIAELDSKGVGAYQIKFIELAKSVEHVELLKEAILADLP; Engineered insulin binding Y variant)” registered a Kd of 77 nM. Further, the Tm in series [1] (setting [3]) and in series [1] (setting [5]) was 52 °C in each case.
“Y00271: insulin binding Y variant, Y00032 with E26Q, SEQ ID NO:118 (LAEAKEAAIAELDSKGVGAYQKSFIQLAKSVEHVELLKEAILADLP; Engineered insulin binding Y variant)”: in the series with insulin (setting [3]), the Kd is 47 nM. In addition, in series [1] (setting [3]), the Tm was found to be 49 °C.
Substance “Y00273: insulin binding Y variant, Y00032 with E32Q, SEQ ID NO:120 (LAEAKEAAIAELDSKGVGAYQKSFIELAKSVQHVELLKEAILADLP; Engineered insulin binding Y variant)” showed a Kd in the series with insulin (setting [3]) of 77 nM. This counts as double-digit nanomolar.
“Y00282: C4 binding Y variant, Y00262 with I17V, SEQ ID NO:19 (LAEAKEAAIAELDSKGVNEAIIKKIERAESVEEVEYWKEEILAQLP; Engineered C4 binding Y variant)”: the Tm in series [1] (setting [5]) was 61 °C.
The same measure, in the same setting: the value for “Y00283: C4 binding Y variant, Y00262 with N18S, SEQ ID NO:20 (LAEAKEAAIAELDSKGISEAIIKKIERAESVEEVEYWKEEILAQLP; Engineered C4 binding Y variant)” was 61 °C; that for “Y00284: C4 binding Y variant, Y00262 with E19A, SEQ ID NO:21 (LAEAKEAAIAELDSKGINAAIIKKIERAESVEEVEYWKEEILAQLP; Engineered C4 binding Y variant)” was 64 °C; that for “Y00285: C4 binding Y variant, Y00262 with I22K, SEQ ID NO:22 (LAEAKEAAIAELDSKGINEAIKKKIERAESVEEVEYWKEEILAQLP; Engineered C4 binding Y variant)” was 57 °C.
Still for that read-out and setting: as for “Y00286: C4 binding Y variant, Y00262 with E26Q, SEQ ID NO:23 (LAEAKEAAIAELDSKGINEAIIKKIQRAESVEEVEYWKEEILAQLP; Engineered C4 binding Y variant)”, the figure is 62 °C; as for “Y00287: C4 binding Y variant, Y00262 with E35Q, SEQ ID NO:24 (LAEAKEAAIAELDSKGINEAIIKKIERAESVEEVQYWKEEILAQLP; Engineered C4 binding Y variant)”, 62 °C.
Same read-out and setting: the value for “Y00288: C4 binding Y variant, Y00262 with E39Q, SEQ ID NO:25 (LAEAKEAAIAELDSKGINEAIIKKIERAESVEEVEYWKQEILAQLP; Engineered C4 binding Y variant)” was 66 °C; that for “Y00289: C4 binding Y variant, Y00262 with E35Q + E39Q, SEQ ID NO:26 (LAEAKEAAIAELDSKGINEAIIKKIERAESVEEVQYWKQEILAQLP; Engineered C4 binding Y variant)” was 65 °C.
Regarding “Y00290: C4 binding Y variant, Y00262 with E35Q + A43K, SEQ ID NO:27 (LAEAKEAAIAELDSKGINEAIIKKIERAESVEEVQYWKEEILKQLP; Engineered C4 binding Y variant)”, the Tm in series [1] (setting [5]) amounted to 69 °C.
On the same count and under the same terms, the value for “Y00291: C4 binding Y variant, Y00262 with E35Q + E39Q + A43K, SEQ ID NO:28 (LAEAKEAAIAELDSKGINEAIIKKIERAESVEEVQYWKQEILKQLP; Engineered C4 binding Y variant)” was 66 °C.
